Biological target: Fc6 (recombinant human IgG1 Fc protein) (human)
Test: SEC; analytical SEC of the Protein A purified reaction products on TSKgel SuperSW3000; native, non-reducing; 50 mM sodium phosphate pH 7.4, 300 mM NaCl, 25 °C

Work on “Fc6 (recombinant human IgG1 Fc protein) (domain or fragment)” yielded a stoichiometry N of 2.

Reference: publication PMC3309923
